Assay [1] has as its target CREB pKID αB peptide pKID αB helix (UniProt P16220). Particulars: cited from earlier work.
Assay [2] concerns the target Mouse CBP KIX (residues 586-683) (mouse) (UniProt P45481). The experiment in a line: NMR titration.
The target is the same in assay [3]. The experiment in a line: ITC.

CBP KIX (from UniProt P45481): the Kd – broadly, the constant that tells how readily two partners part at equilibrium – in assay [1] is 80 µM. Regarding “CRTC1-MAML2 TAD1 polypeptide spanning residues 150-190”, the Kd in assay [2] was 21 µM. The substance also yielded a Kd2 (site 2, two-site model) in assay [3] of 370 µM.
